From publication PMC7736470 come the findings set out here.

For this test, the target named is Neuropeptide Y (Homo sapiens), P01303. The note with it: remark: other sources report otherwise.

B1: Neuropeptide Y receptor type 2, P49146 (protein)
chain: MGPIGAEADENQTVEEMKVEQYGPQTTPRGELVPDPEPELIDSTKLIEVQVVLILAYCSIILLGVIGNSLVIHVVIKFKSMRTVTNFFIANLAVADLLVNTLCLPFTLTYTLMGEWKMGPVLCHLVPYAQGLAVQVSTITLTVIALDRHRCIVYHLESKISKRISFLIIGLAWGISALLASPLAIFREYSLIEIIPDFEIVACTEKWPGEEKSIYGTVYSLSSLLILYVLPLGIISFSYTRIWSKLKNHVSPGAANDHYHQRRQKTTKMLVCVVVVFAVSWLPLHAFQLAVDIDSQVLDLKEYKLIFTVFHIIAMCSTFANPLLYGWMNSNYRKAFLSAFRCEQRLDAIHSEVSVTFKAKKNLEVRKNSGPNDSFTEATNV
The molecule B1 yielded an equilibrium dissociation constant (Kd) of 35 nM.
